Publication PMC7856282 (Nature biomedical engineering, 2020)

Assay: Dynamic light scattering
Assay type: physicochemical
Details: PBS, 100 mM MgCl2; insulin 25 µM, dAb 1 mg/mL; Figure S2 and S3

Substance: insulin: human insulin obtained from R&D Systems; analyte of the assay
- aggregation under buffer conditions (DLS): No aggregation
